Reference: article PMC10765524, “Cryo-EM structures of PP2A:B55–FAM122A and PP2A:B55–ARPP19” (Nature, 2023)
Numbering of substitutions follows the chain as printed. Numbers in names are those of the source.

T1: YFP–ARPP19 F48A (UniProt P56211 1-112, F48A)
T1 construct: ARPP19; source: HeLa, transiently transfected, in lysate
T1 sequence (looked up): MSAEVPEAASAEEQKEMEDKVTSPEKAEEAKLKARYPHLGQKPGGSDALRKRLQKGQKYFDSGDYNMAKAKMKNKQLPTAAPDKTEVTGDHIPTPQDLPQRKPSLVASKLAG

T2: YFP–ARPP19 L49A (UniProt P56211 1-112, L49A)
T2 construct: ARPP19; source: HeLa, transiently transfected, in lysate
T2 sequence (looked up): T1 sequence (looked up) with A48F, L49A

T3: YFP–ARPP19 R50A (UniProt P56211 1-112, R50A)
T3 construct: ARPP19; source: HeLa, transiently transfected, in lysate
T3 sequence (looked up): T1 sequence (looked up) with A48F, R50A

T4: YFP–ARPP19 R52A (UniProt P56211 1-112, R52A)
T4 construct: ARPP19; source: HeLa, transiently transfected, in lysate
T4 sequence (looked up): T1 sequence (looked up) with A48F, R52A

T5: YFP–ARPP19 L53A (UniProt P56211 1-112, L53A)
T5 construct: ARPP19; source: HeLa, transiently transfected, in lysate
T5 sequence (looked up): T1 sequence (looked up) with A48F, L53A

T6: YFP–ARPP19 K55A (UniProt P56211 1-112, K55A)
T6 construct: ARPP19; source: HeLa, transiently transfected, in lysate
T6 sequence (looked up): T1 sequence (looked up) with A48F, K55A

T7: cAMP regulated phosphoprotein 19 (ARPP19), unphosphorylated (UniProt P56211 1-112)
T7 construct: 15N-labelled in the NMR experiments; source: E. coli BL21 (DE3), purified (HisTrap, TEV cleavage, Ni-NTA, heat, SEC); not shown: His6, N-terminal, cleaved; MBP, N-terminal, cleaved
T7 sequence (looked up): T1 sequence (looked up) with A48F

T8: ARPP19(S10C) labelled with Alexa Fluor 488 (ARPP19-tracer) (UniProt P56211 1-112, S10C, Alexa Fluor 488 C5 Maleimide label)
T8 construct: ARPP19, S10C; source: E. coli BL21 (DE3), purified; labelled, recovered by analytical SEC; not shown: His6, N-terminal, cleaved; MBP, N-terminal, cleaved
T8 sequence (looked up): T1 sequence (looked up) with S10C, A48F

B1: FAM122AID I88A/K89A/S120C (domain or fragment, UniProt Q96E09 29-120, looked up)
chain: GGGLRRSNSAPLIHGLSDTSPVFQAEAPSARRNSTTFPSRHGLLLPASPVRMHSSRLHQAAQEEGMDLINRETVHEREVQTAMQISHSWEEC
modifications: Alexa Fluor 488 C5 Maleimide label (fluorescence polarization assay)
B2: FAM122AID R84A/L85A/S120C (domain or fragment, UniProt Q96E09 29-120, looked up)
chain: B1 chain with R56A, L57A, A60I, A61K
modifications: Alexa Fluor 488 C5 Maleimide label (fluorescence polarization assay)
B3: B55 (subunit of the PP2A:B55 holoenzyme) (natural protein, UniProt P63151 1-447, looked up)
chain: MAGAGGGNDIQWCFSQVKGAVDDDVAEADIISTVEFNHSGELLATGDKGGRVVIFQQEQENKIQSHSRGEYNVYSTFQSHEPEFDYLKSLEIEEKINKIRWLPQKNAAQFLLSTNDKTIKLWKISERDKRPEGYNLKEEDGRYRDPTTVTTLRVPVFRPMDLMVEASPRRIFANAHTYHINSISINSDYETYLSADDLRINLWHLEITDRSFNIVDIKPANMEELTEVITAAEFHPNSCNTFVYSSSKGTIRLCDMRASALCDRHSKLFEEPEDPSNRSFFSEIISSISDVKFSHSGRYMMTRDYLSVKIWDLNMENRPVETYQVHEYLRSKLCSLYENDCIFDKFECCWNGSDSVVMTGSYNNFFRMFDRNTKRDITLEASRENNKPRTVLKPRKVCASGKRKKDEISVDSLDFNKKILHTAWHPKENIIAVATTNNLYIFQDKVN
notes: B55 regulatory subunit, printed as full-length B55 1–477; The B55 chain of m1, written alone for the contacts seen in the cryo-EM structures; also called B55WT; source: Expi293F, purified as part of PP2A:B55; not shown: GFP, N-terminal, cleaved
B4: B55, endogenous in HeLa cells (natural protein, human (endogenous in HeLa), UniProt P63151 1-447, looked up)
chain: B3 chain
notes: B55 detected with an antibody to B55α; also called B55α; source: endogenous, HeLa lysate
B5: B55 loopless (B55LL) (domain or fragment)
chain: MAGAGGGNDIQWCFSQVKGAVDDDVAEADIISTVEFNHSGELLATGDKGGRVVIFQQEQENKIQSHSRGEYNVYSTFQSHEPEFDYLKSLEIEEKINKIRWLPQKNAAQFLLSTNDKTIKLWKISNGEASPRRIFANAHTYHINSISINSDYETYLSADDLRINLWHLEITDRSFNIVDIKPANMEELTEVITAAEFHPNSCNTFVYSSSKGTIRLCDMRASALCDRHSKLFEEPEDPSNRSFFSEIISSISDVKFSHSGRYMMTRDYLSVKIWDLNMENRPVETYQVHEYLRSKLCSLYENDCIFDKFECCWNGSDSVVMTGSYNNFFRMFDRNTKRDITLEASRENNKPRTVLKPRKVCASGKRKKDEISVDSLDFNKKILHTAWHPKENIIAVATTNNLYIFQDKVN
notes: linker that replaces B55 residues 126–164; source: Expi293F, purified (GFP-nanobody beads, TEV on-column cleavage, QTrap, SEC); not shown: GFP, N-terminal, cleaved
B6: tpS62ARPP19_(S104A) (singly thiophosphorylated ARPP19) (natural protein, UniProt P56211 1-112, looked up)
chain: T1 sequence (looked up) with A48F, S104A
modifications: thiophosphoserine at 62
notes: also called tpARPP19; S62 tpARPP19_(S104A); source: E. coli BL21 (DE3), purified; thiophosphorylated with MASTL kinase and ATP-γ-S; not shown: His6, N-terminal, cleaved; MBP, N-terminal, cleaved
B7: tpS62tpS104ARPP19 (ARPP19 thiophosphorylated by MASTL on Ser62 and Ser104) (natural protein, UniProt P56211 1-112, looked up)
chain: T1 sequence (looked up) with A48F
modifications: thiophosphoserine at 62 and 104

Legend:
[1] = biological target: PP2A:B55 holoenzyme (PP2Aa, B55, PP2Ac) (UniProt P30153 9-589; P63151 1-447; P67775 1-309, C-terminal residue fully methylated (mLeu309)); assay: cell-based or functional assay
[2] = biological target: T9, PP2Aa_(9–589) (scaffolding subunit of the PP2A:B55 holoenzyme) (UniProt P30153 9-589); assay: cryo-EM structure; purified PP2A:B55 incubated with FAM122AID or tpARPP19 at a 1.5 molar ratio; CHAPSO added before vitrification; details: both partners purified
T9 construct: PP2Aa (PP2A scaffolding A subunit), residues 9-589; The PP2Aa chain of m1, written alone for the contacts seen in the cryo-EM structures; source: E. coli BL21 (DE3), purified (HisTrap, TEV cleavage, Ni-NTA, QTrap, SEC); not shown: His6, N-terminal, cleaved; MBP, N-terminal, cleaved

YFP–ARPP19 F48A = biological target: T1, YFP–ARPP19 F48A; assay: co-IP; YFP–ARPP19 variants transiently transfected into HeLa cells, precipitated with GFP-Trap beads at 4 °C in 50 mM Tris-HCl pH 7.5, 50 mM NaCl, 1 mM EDTA, 1 mM DTT, 0.1% NP40; western blot for B55α and PP2Ac; details: partners not purified
YFP–ARPP19 L49A = biological target: T2, YFP–ARPP19 L49A; assay: as above; details: partners not purified
YFP–ARPP19 R50A = biological target: T3, YFP–ARPP19 R50A; assay: as above; details: partners not purified
YFP–ARPP19 R52A = biological target: T4, YFP–ARPP19 R52A; assay: as above; details: partners not purified
YFP–ARPP19 L53A = biological target: T5, YFP–ARPP19 L53A; assay: as above; details: partners not purified
YFP–ARPP19 K55A = biological target: T6, YFP–ARPP19 K55A; assay: as above; details: partners not purified
[3] = biological target: T7, cAMP regulated phosphoprotein 19 …; assay: NMR titration; 2D 1H,15N HSQC of 15N-labelled FAM122A or ARPP19 (2–6 μM) with an excess of unlabelled PP2A:B55 or B55LL; peak intensity loss; 283 K; NMR buffer pH 6.3, 150 mM NaCl; details: both partners purified
[4] = biological target: B7; assay: as above; details: both partners purified
[5] = biological target: T8, ARPP19(S10C) labelled with Alexa Fluor …; assay: fluorescence polarisation; PP2A:B55 (or B55LL) serially diluted into 0.1 nM Alexa Fluor 488 tracer (FAM122AID-tracer or ARPP19-tracer); 10 mM HEPES pH 7.0, 150 mM NaCl, 0.5 mM TCEP, 0.01% Triton X-100, 0.1 mg/ml BSA; 30 min at room temperature; details: both partners purified
[6] = biological target: B3; assay: cryo-EM structure; purified PP2A:B55 incubated with FAM122AID or tpARPP19 at a 1.5 molar ratio; CHAPSO added before vitrification; details: both partners purified

PP2A:B55 holoenzyme (PP2Aa, B55, PP2Ac), sequence (P30153 9-589, chain 1 of 2): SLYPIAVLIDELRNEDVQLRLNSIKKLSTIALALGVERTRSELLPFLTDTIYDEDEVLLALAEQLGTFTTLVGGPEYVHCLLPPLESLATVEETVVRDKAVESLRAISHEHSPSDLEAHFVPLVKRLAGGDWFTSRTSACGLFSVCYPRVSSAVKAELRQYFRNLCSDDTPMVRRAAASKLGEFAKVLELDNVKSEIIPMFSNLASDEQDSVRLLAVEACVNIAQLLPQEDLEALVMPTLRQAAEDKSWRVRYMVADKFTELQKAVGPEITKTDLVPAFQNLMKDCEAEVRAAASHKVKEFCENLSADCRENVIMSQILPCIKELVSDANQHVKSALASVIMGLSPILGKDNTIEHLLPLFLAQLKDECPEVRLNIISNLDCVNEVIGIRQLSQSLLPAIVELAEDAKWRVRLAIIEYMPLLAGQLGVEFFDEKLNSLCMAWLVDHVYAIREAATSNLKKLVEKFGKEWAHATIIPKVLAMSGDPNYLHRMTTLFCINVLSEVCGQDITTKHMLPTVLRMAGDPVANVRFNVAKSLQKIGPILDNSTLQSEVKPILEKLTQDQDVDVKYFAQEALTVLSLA
PP2A:B55 holoenzyme (PP2Aa, B55, PP2Ac), sequence (P67775 whole entry, chain 3 of 2): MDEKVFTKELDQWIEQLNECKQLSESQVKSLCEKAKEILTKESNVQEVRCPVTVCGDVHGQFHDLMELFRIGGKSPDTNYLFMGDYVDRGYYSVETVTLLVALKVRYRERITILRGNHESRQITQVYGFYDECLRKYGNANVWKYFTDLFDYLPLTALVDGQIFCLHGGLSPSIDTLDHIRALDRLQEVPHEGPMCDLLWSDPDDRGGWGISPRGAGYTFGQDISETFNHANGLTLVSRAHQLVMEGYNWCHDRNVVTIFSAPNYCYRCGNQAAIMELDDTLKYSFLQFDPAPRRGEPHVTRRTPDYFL
T9 sequence (P30153 9-589): as the sequence (P30153 9-589, chain 1 of 2) above

Binder: B1
- IC50 of PP2A:B55 inhibition (DiFMUP), fold increase against wild type [1]: 48 fold

Binder: B2
- IC50 of PP2A:B55 inhibition (DiFMUP), fold increase against wild type [1]: 38 fold

Binder: B3
- binding result [2]: binds

Binder: B4
- binding, percent of wild type (YFP–ARPP19 F48A): ~50%
- binding, percent of wild type (YFP–ARPP19 L49A): ~75%
- binding, percent of wild type (YFP–ARPP19 R50A): ~50%
- binding, percent of wild type (YFP–ARPP19 R52A): < 25%
- binding, percent of wild type (YFP–ARPP19 L53A): < 25%
- binding, percent of wild type (YFP–ARPP19 K55A): ~75%

Binder: B5
- binding result [3]: binds
- binding result [4]: binds
- binding result [5]: binds

Binder: B6
- binding result [6]: binds

Binder: B7
- potency of PP2A:B55 inhibition (DiFMUP) against that of FAM122A [1]: ~250 fold
